Test [1] deals with BG505.MD39 native-like trimer (stabilized HIV Env gp140 ectodomain), sequence optimized, recombinant (HIV-1 (isolate BG505)). Kind of test: SEC. For orientation: SEC sorts molecules by how far they enter the pores of the column.
Test [2] shares this target. Briefly: SEC-MALS.
For test [3] the target is unchanged. Briefly: negative-stain EM.
Test [4] shares this target. Briefly: native gel or EMSA.
The target in test [5] is in vivo produced BG505.MD39 (DNA-encoded, pMD39_opt, in mouse muscle) (HIV-1 (isolate BG505)). Briefly: native gel or EMSA. For orientation: A gel shift assay detects complexes by their altered migration in electrophoresis.

A word on the stoichiometry N: it is a count of units in the complex or per binding partner. As to “BG505.MD39 native-like trimer (stabilized HIV Env gp140 ectodomain), sequence optimized, recombinant (complex)”, the stoichiometry N in test [1], in test [2], in test [3] and in test [4] was 3 each time.

Consider “in vivo produced BG505.MD39 (DNA-encoded, pMD39_opt, in mouse muscle) (complex)”, for which the stoichiometry N in test [5] turned out to be 3.
